Read-outs that look alike come from different tables or passages of the source. No end group written: not given here.
Experiments:
bCPA1 [1] = target: T1, bCPA1 (Bos taurus, UniProt P00730); test: Ki determination, tight-binding inhibition of metallocarboxypeptidase; format: biochemical, bovine; conditions: natural isoforms; apparent Ki, without correction by competing assays; read-out: derived Ki towards bCPA (apparent Ki values)
T1 sequence (P00730 111-419): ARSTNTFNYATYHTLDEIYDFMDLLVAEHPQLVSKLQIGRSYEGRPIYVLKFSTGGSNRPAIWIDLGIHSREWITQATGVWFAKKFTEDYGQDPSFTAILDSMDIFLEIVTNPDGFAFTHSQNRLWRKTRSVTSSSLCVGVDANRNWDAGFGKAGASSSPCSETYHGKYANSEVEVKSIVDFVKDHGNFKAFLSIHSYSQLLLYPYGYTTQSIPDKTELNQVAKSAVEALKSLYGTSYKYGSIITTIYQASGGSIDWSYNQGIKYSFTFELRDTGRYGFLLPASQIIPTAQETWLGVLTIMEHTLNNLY
Protocol: Inhibitory activities against CPA- and CPB-type forms (bovine and human variants of CPA1, CPA2, CPA4, CPB1, and TAFI) were assayed for all extracts, subject to the experimental conditions that enzyme (E), substrate (S) and inhibitor (I) concentrations as well as the [I]/[E] ratio and preincubation time followed the requirements for tight-binding inhibitor assays. Similar approaches were followed to measure the activities of proteases of different catalytic types, like pepsin, papain, trypsin and subtilisin [45, 46, 47, 48]. All assays were performed in triplicate at 25 °C in a multiplexed manner. For 96-well assays an iEMS spectrophotometer reader/dispenser FM (Labsystems, Finland) was used with a final reaction volume of 250 μL. For cuvette assays, a Cary 400 Bio spectrophotometer (Varian Inc., Palo Alto, CA, USA) spectrophotometer was used with a final reaction volume of 1 ml. The reactions were followed at 5 s intervals for 5 min and recorded as initial velocities. In the protease inhibition assays, mixtures of activity buffer, biological sample and enzyme were preincubated at 25 °C for 10min, before substrate addition. The assay conditions were as follows: for CPA-like enzymes, 7.0nM CPA, 0.1mM AAFP substrate in 20mM Tris-HCl pH 7.5, 500mMNaCl, 1% v/v dimethyl sulfoxide (DMSO), 0.05% w/v BRIJ-35 was used. For CPB-like enzymes, CPB 3.0nM CPB, 0.1mM AAFA substrate and activity buffer of 20 mM Tris-HCl pH [50].
The Ki values of natural and recombinant NvCI against bCPA1, hCPA1, hCPA2, rat CPA3, hCPA4, hCPB1, bTAFI, hTAFI, hCPD and hCPZ were determined by measuring the enzymatic residual activity (Vi/V0 = a) at different inhibitor concentrations and using a fixed enzyme and substrate concentrations as described above, where vi and v0 are the fraction of enzymatic activity in the presence and absence of inhibitor, respectively, in terms of initial velocities. The determination of Ki values was carried out on equilibrium conditions ([E0]/Ki ≤ 10), using a previously determined preincubation time of 15 min, required to establish enzyme-inhibitor equilibrium. Working temperature was 37 °C. The best estimates of Ki values were obtained by fitting the experimental data to the equation for tight-binding inhibitors by non-linear regression using the GraphPad Prisma 5 software (GraphPad Software, Inc., San Diego, CA, USA) at p < 0.05. The real Ki values against each of these A/B-type MCPs were calculated according to the equation described by Morrison and Copeland [19, 20].

HepG2 cells = test: Cellular uptake by confocal laser scanning microscopy; format: cell-based, human; conditions: HepG2, 20 µg/ml, 4 h at 37 °C, CLSM, LysoTracker and Hoechst staining
Protocol: Recombinant NvCI was fluorescently labelled with an Alexa Fluor 488 Protein Labeling Kit (Molecular Probes, Eugene, OR, USA). HepG2 cells were seeded in a 35 mm glass-bottom culture dish (MatTek Corporation, Ashland, MA, USA) at a density of 4 × 10^5 cells/well and incubated for 24 h. The cells were incubated with 20 µg/ml Alexa 488-NvCI for 4 h at 37 °C. Prior to imaging, lysosomes and nuclei were stained with Lysotracker Red and Hoechst (Invitrogen, Carlsbard, CA, USA), respectively, for 90 or 10 min.

hCPA2 = target: T2, hCPA2 (Homo sapiens, UniProt P48052); conditions: cited from earlier work
T2 sequence (P48052 115-419): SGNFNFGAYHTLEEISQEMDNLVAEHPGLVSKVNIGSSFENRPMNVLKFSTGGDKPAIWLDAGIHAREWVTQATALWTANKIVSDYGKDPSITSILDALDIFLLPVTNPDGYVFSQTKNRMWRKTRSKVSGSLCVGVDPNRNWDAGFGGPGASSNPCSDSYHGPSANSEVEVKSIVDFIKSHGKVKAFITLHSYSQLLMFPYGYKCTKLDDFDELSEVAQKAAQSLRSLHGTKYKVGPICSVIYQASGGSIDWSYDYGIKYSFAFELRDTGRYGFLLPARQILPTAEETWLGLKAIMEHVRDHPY
Description: (§1) Table 2 Ki values of various proteinaceous metallocarboxypeptidases (MCPs) inhibitors. | column: Ki (nM) / rPCI (a); Ki (nM) / rTCI (b); Ki (nM) / rLCI (c); Ki (nM) / rACI (d); Ki (nM) / rhuman latexin (e)

hCPA4 = target: T3, hCPA4 (Homo sapiens, UniProt Q9UI42); conditions: cited from earlier work
T3 sequence (Q9UI42 114-421): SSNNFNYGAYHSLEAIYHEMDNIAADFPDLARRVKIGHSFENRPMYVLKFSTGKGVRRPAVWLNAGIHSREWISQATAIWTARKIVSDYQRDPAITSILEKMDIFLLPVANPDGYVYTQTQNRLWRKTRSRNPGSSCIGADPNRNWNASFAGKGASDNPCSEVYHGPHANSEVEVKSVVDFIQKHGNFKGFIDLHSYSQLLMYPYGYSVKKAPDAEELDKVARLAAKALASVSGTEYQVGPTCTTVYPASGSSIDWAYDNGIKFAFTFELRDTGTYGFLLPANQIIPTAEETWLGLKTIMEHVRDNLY
Description: as §1

hCPA1 = target: T4, hCPA1 (Homo sapiens, UniProt P15085); conditions: cited from earlier work
T4 sequence (P15085 111-419): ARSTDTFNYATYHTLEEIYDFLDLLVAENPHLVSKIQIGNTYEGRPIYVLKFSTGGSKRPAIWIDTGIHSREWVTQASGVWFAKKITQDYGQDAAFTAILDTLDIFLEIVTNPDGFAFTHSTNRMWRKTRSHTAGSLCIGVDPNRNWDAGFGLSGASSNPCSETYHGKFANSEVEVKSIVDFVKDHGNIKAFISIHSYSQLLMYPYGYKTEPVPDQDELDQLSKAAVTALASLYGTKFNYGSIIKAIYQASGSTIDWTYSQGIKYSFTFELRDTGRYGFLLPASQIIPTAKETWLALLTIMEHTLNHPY
Description: as §1

bCPA1 [2] = target: T1, bCPA1; conditions: cited from earlier work
Description: as §1

hTAFI = target: T5, hTAFI (Homo sapiens, UniProt Q96IY4); conditions: cited from earlier work
T5 sequence (Q96IY4 115-423): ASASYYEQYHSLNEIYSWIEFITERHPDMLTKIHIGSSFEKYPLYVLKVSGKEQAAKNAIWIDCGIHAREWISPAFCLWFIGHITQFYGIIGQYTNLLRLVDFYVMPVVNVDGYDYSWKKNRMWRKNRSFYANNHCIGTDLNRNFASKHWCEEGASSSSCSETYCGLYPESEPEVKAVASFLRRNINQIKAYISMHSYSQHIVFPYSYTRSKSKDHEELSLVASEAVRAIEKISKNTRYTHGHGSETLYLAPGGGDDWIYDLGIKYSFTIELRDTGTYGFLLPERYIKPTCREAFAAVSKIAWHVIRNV
Description: Table 2 Ki values of various proteinaceous metallocarboxypeptidases (MCPs) inhibitors. | column: Ki (nM) / rPCI (a); Ki (nM) / rTCI (b); Ki (nM) / rACI (d); Ki (nM) / rhuman latexin (e)

hCPB = target: T6, hCPB (Homo sapiens, UniProt P15086); conditions: cited from earlier work
T6 sequence (P15086 111-417): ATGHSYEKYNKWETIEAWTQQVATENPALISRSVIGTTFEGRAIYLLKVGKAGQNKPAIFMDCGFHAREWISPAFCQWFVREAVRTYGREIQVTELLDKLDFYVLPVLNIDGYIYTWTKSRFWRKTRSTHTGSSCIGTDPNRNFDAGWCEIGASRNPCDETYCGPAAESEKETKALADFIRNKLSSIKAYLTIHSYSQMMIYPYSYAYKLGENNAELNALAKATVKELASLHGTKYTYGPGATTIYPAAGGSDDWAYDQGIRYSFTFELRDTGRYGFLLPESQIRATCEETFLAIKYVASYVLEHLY
Description: Table 2 Ki values of various proteinaceous metallocarboxypeptidases (MCPs) inhibitors. | column: Ki (nM) / rPCI (a); Ki (nM) / rTCI (b); Ki (nM) / rLCI (c); Ki (nM) / rhuman latexin (e)

pCPB = target: T7, pCPB (Sus scrofa, UniProt P09955); conditions: ref Arolas et al., 2004 [21]; cited from earlier work
T7 sequence (P09955 111-416): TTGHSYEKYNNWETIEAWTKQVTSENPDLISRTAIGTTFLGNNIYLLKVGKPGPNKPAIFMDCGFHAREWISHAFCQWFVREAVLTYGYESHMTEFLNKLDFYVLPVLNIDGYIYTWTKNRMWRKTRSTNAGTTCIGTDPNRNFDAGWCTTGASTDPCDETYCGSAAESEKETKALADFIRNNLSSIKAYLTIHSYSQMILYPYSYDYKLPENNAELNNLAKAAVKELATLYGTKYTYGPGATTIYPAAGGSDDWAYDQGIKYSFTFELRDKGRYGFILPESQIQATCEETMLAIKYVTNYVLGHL
Description: Table 2 Ki values of various proteinaceous metallocarboxypeptidases (MCPs) inhibitors. | column: Ki (nM) / rPCI (a); Ki (nM) / rTCI (b); Ki (nM) / rLCI (c)

## NvCId: minor natural isoform, lacks the N-terminal Phe as compared to NvCIb (HVPDDRPCIKPGRCPLVPDATCTFVCKAADNDFGYECQHVWTFEGQRVGCYA; three intrachain disulphides)
bCPA1 [1]
  Ki: 0.022 ± 0.001 nM

## NvCIc: minor natural isoform, lacks the N-terminal Phe as compared to NvCIa (HVPDDRPCINPGRCPLVPDATCTFVCKAADNDFGYECQHVWTFEGQRVGCYA; three intrachain disulphides)
bCPA1 [1]
  Ki: 0.049 ± 0.002 nM

## Alexa488-labelled NvCI: recombinant NvCI fluorescently labelled with an Alexa Fluor 488 Protein Labeling Kit (FHVPDDRPCINPGRCPLVPDATCTFVCKAADNDFGYECQHVWTFEGQRVGCYA; ends and bridges not checked; also: Alexa Fluor 488 label; UniProt P86912 1-53, looked up)
HepG2 cells
  cellular uptake / internalization: internalized NvCI was distributed through the cytoplasm

## NvCIb: natural isoform of NvCI with N→K substitution at the 11th residue (FHVPDDRPCIKPGRCPLVPDATCTFVCKAADNDFGYECQHVWTFEGQRVGCYA; three intrachain disulphides)
bCPA1 [1]
  Ki: 0.038 ± 0.002 nM

B1: rACI: recombinant carboxypeptidase inhibitor from the intestinal parasite Ascaris suum (protein)
chain: VRKCLSDTDCTNGEKCVQKNKICSTIVEIQRCEKEHFTIPCKSNNDCQVWAHEKICNKGCCWDLL
modifications: intrachain disulphides
hCPA2; ref Sanglas et al., 2009 [10]
  Ki: 2.5 ± 0.2 nM
hCPA4; ref Sanglas et al., 2009 [10]
  Ki: 23.9 ± 3.1 nM
hCPA1; ref Sanglas et al., 2009 [10]
  Ki: 1.6 ± 0.2 nM
bCPA1 [2]; ref Sanglas et al., 2009 [10]
  Ki: 2.4 ± 0.3 nM
hTAFI; ref Sanglas et al., 2009 [10]
  Ki: 42 ± 1.7 nM

B2: rhuman latexin: recombinant human latexin, larger (19–22 kDa) endogenous protein inhibitor of carboxypeptidases (protein, UniProt Q9BS40 1-222, looked up)
Latexin: MEIPPTNYPASRAALVAQNYINYQQGTPHRVFEVQKVKQASMEDIPGRGHKYHLKFAVEEIIQKQVKVNCTAEVLYPSTGQETAPEVNFTFEGETGKNPDEEDNTFYQRLKSMKEPLEAQNIPDNFGNVSPEMTLVLHLAWVACGYIIWQNSTEDTWYKMVKIQTVKQVQRNDDFIELDYTILLHNIASQEIIPWQMQVLWHPQYGTKVKHNSRLPKEVQLE
hCPA2; ref Pallarès et al., 2005 [15]
  Ki: 3.5 ± 0.3 nM
hCPA4; ref Pallarès et al., 2005 [15]
  Ki: 3 ± 0.3 nM
hCPA1; ref Pallarès et al., 2005 [15]
  Ki: 1.6 ± 0.2 nM
bCPA1 [2]; ref Pallarès et al., 2005 [15]
  Ki: 1.2 ± 0.2 nM
hTAFI; ref Pallarès et al., 2005 [15]
  Ki: 1.8 ± 0.3 nM
hCPB; ref Pallarès et al., 2005 [15]
  Ki: 1.1 ± 0.1 nM

B3: rLCI: recombinant carboxypeptidase inhibitor from the medical leech Hirudo medicinalis (protein, UniProt P81511 16-81, looked up)
Metallocarboxypeptidase …: SHTPDESFLCYQPDQVCCFICRGAAPLPSEGECNPHPTAPWCREGAVEWVPYSTGQCRTTCIPYVE
pCPB
  Ki: 2.4 ± 0.5 nM
hCPA2; ref Arolas et al., 2004 [21]
  Ki: 4.5 ± 0.6 nM
hCPA4; ref Tanco et al., 2010 [22]
  Ki: 7.3 ± 0.4 nM
hCPA1; ref Arolas et al., 2004 [21]
  Ki: 1.3 ± 0.4 nM
bCPA1 [2]; ref Arolas et al., 2004 [21]
  Ki: 1.1 ± 0.2 nM
hCPB; ref Arolas et al., 2004 [21]
  Ki: 1.2 ± 0.3 nM
